Holding throughout (assay): co-IP with mouse anti-FLAG from lysate of cells overexpressing N-FLAG B3GNT2, then mass spectrometry
In one experiment the target is T1, EIF3I (human, UniProt Q13347 1-325).
T1 construct: Identified by mass spectrometry in the co-IP; also called NP_003748.1
Here is the method: (§1) Cells were plated in 10-cm cell culture dishes and grown to 60-80% confluency. For each condition, two biological replicates were harvested for co-IP. Cells were washed with PBS and 4 mL of lysis buffer (20 mM HEPES, 1% Triton X-100, 150 mM NaCl, 1 mM EDTA, and 10% glycerol) containing protease inhibitor cocktail was added. Cells were scraped and lysate was incubated at 4° C. under rotary agitation for 1 h. Lysate was centrifuged at 14,000×g for 10 min at 4° C. Supernatant was transferred to a new tube and an aliquot was taken as the input. […] For Western blots, 10 μg/mL Chicken Anti-FLAG (Aves labs ET-DY100) and IgY control (R&D Systems AB-101-C) antibodies were biotinylated (Thermo Fisher Scientific 90407) and added to the respective conditions. Lysates with antibodies were incubated at 4° C. under rotary agitation overnight. For each mL of lysate, 50 μL of Pierce Protein A/G Magnetic Beads (Mass spectrometry; Thermo Fisher Scientific 88803) or Pierce Streptavidin Magnetic Beads (Western blot; Thermo Fisher Scientific 88817) was washed twice with lysis buffer. Lysates with antibodies were added to the beads and incubated at 4° C. under rotary agitation for 4 h. Beads were washed with lysis buffer 3 times and resuspended in lysis buffer for storage.
(§2) Magnetic beads were resuspended in 100 mM Tris pH 7.8, reduced, alkylated and digested with trypsin at 37° ° C. overnight. This solution was subjected to solid phase extraction to concentrate the peptides and remove unwanted reagents followed by injection onto a Shimadzu HPLC with fraction collector. Eight fractions were collected and after concentration were injected on a Waters NanoAcquity HPLC equipped with a self-packed Aeris 3 μm C18 analytical column 0.075 mm by 20 cm, (Phenomenex). Peptides were eluted using standard reverse-phase gradients. The effluent from the column was analyzed using a Thermo Orbitrap Elite mass spectrometer (nanospray configuration) operated in a data dependent manner for 54 minutes. The resulting fragmentation spectra were correlated against the known database using Proteome Discover 1.4 (Thermo Fisher Scientific).

For another experiment, the target named is T2, SRP14 (human, UniProt P37108 2-136).
T2 construct: Identified by mass spectrometry in the co-IP; also called NP_003125.3
T2 sequence (looked up): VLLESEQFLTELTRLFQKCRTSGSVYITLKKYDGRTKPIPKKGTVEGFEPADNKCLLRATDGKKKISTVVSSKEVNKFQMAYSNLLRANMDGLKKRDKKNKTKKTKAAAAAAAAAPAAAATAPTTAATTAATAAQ
Here is the method:
as §1, §2

In the next experiment the target is T3, ANXA2 (human, UniProt P07355-2 1-357, limits assumed).
T3 construct: Identified by mass spectrometry in the co-IP; also called NP_001002858.1 (+1)
Here is the method: as §1, §2

The next experiment addresses T4, CAPRIN1 (human, UniProt Q14444 2-709).
T4 construct: Identified by mass spectrometry in the co-IP; also called NP_005889.3 (+1)
T4 sequence (looked up): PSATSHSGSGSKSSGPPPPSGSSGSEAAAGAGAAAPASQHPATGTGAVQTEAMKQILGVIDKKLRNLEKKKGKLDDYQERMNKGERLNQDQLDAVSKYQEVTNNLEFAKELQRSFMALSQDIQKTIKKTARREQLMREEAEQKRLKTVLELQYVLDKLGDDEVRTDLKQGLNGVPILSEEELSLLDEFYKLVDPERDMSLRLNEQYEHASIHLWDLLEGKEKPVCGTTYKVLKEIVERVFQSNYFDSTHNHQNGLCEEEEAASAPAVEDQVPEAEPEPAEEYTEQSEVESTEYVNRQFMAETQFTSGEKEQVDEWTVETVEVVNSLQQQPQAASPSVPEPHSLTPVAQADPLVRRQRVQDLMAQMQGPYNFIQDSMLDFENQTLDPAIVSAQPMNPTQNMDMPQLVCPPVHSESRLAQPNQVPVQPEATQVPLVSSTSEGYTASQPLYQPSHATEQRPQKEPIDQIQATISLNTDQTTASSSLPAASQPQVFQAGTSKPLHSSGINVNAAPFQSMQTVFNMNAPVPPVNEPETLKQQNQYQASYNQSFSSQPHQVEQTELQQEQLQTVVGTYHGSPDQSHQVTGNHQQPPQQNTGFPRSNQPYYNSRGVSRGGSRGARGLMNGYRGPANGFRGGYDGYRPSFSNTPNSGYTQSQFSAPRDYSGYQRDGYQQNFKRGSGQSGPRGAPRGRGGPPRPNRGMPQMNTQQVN
Here is the method:
as §1, §2

For a further experiment, the target named is T5, MAGED2 (human, UniProt Q9UNF1 2-606).
T5 construct: Identified by mass spectrometry in the co-IP; also called NP_803182.1
T5 sequence (looked up): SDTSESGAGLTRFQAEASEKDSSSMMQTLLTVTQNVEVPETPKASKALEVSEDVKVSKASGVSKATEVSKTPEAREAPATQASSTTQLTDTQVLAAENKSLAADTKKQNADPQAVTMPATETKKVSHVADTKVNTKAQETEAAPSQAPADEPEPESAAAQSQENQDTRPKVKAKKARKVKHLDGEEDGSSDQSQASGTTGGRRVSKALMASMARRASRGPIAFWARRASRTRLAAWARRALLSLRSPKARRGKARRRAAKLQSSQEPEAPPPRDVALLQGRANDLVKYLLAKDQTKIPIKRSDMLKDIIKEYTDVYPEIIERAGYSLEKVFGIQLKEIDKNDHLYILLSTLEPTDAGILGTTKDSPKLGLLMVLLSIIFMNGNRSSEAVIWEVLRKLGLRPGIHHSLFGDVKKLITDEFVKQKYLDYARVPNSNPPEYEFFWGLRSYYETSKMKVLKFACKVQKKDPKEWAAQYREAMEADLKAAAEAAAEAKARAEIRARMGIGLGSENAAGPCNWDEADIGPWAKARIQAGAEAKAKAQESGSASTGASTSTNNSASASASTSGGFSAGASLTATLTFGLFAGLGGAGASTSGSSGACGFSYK
On the procedure:
as §1, §2

This is an account of results in patent US20240261333A1 (published 2024).

T1 sequence (Q13347 whole entry): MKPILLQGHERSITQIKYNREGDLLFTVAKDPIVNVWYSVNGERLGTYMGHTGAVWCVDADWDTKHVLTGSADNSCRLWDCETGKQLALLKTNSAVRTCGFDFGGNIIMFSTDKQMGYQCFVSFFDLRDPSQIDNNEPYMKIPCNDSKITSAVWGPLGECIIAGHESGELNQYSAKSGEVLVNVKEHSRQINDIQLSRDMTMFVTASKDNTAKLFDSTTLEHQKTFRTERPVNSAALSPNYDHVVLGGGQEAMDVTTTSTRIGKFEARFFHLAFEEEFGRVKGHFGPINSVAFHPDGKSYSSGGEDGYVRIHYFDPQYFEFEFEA
T3 sequence (P07355 other isoform, or with tags, fused parts or gaps limits assumed): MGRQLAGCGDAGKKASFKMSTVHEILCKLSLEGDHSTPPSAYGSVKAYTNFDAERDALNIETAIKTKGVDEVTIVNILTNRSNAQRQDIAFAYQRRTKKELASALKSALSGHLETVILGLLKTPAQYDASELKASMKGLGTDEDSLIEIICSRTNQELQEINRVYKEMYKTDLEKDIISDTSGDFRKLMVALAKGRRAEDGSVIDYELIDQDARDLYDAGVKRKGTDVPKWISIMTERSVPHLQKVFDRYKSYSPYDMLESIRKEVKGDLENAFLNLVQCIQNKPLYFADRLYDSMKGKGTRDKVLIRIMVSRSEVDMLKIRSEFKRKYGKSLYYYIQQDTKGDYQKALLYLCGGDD

B1: N-terminal FLAG tagged B3GNT2 (enzyme, human, UniProt Q9NY97 1-397, looked up)
chain: MSVGRRRIKLLGILMMANVFIYFIMEVSKSSSQEKNGKGEVIIPKEKFWKISTPPEAYWNREQEKLNRQYNPILSMLTNQTGEAGRLSNISHLNYCEPDLRVTSVVTGFNNLPDRFKDFLLYLRCRNYSLLIDQPDKCAKKPFLLLAIKSLTPHFARRQAIRESWGQESNAGNQTVVRVFLLGQTPPEDNHPDLSDMLKFESEKHQDILMWNYRDTFFNLSLKEVLFLRWVSTSCPDTEFVFKGDDDVFVNTHHILNYLNSLSKTKAKDLFIGDVIHNAGPHRDKKLKYYIPEVVYSGLYPPYAGGGGFLYSGHLALRLYHITDQVHLYPIDDVYTGMCLQKLGLVPEKHKGFRTFDIEEKNKNNICSYVDLMLVHSRKPQEMIDIWSQLQSAHLKC
notes: FLAG-tagged ORF overexpressed in A375 cells; bait of the co-IP with mouse anti-FLAG; also called N-FLAG B3GNT2; N-term FLAG; not shown: N-terminal FLAG tag
Turning to B1, the “co-IP mass spectrometry count (N-term FLAG)” value in the experiment with EIF3I amounted to 0; with SRP14 it was 0; in the experiment with ANXA2, 17; with CAPRIN1, 7; with MAGED2 it was 0.
